Data published in FireProtDB (doi:10.1021/bi9929958).

B1: Superoxide dismutase [Mn], mitochondrial, P04179 (parent)
chain: MLSRAVCGTSRQLAPVLGYLGSRQKHSLPDLPYDYGALEPHINAQIMQLHHSKHHAAYVNNLNVTEEKYQEALAKGDVTAQIALQPALKFNGGGHINHSIFWTNLSPNGGGEPKGELLEAIKRDFGSFDKFKEKLTAASVGVQGSGWGWLGFNKERGHLQIAACPNQDPLQGTTGLIPLLGIDVWEHAYYLQYKNVRPDYLKAIWNVINWENVTERYMACKK

Variants of: B1
Conditions: Homo sapiens; pH 7.8; Thermal; DSC; Potassium phosphate 20 mM; reversible: yes; structure 1N0J; whole UniProt chain shown

Variant	Tm	change of melting temperature, mutant - wild type (higher = more stable)
Q167H	88.9 °C	0 °C
Q167S	94.9 °C	6 °C
Q167A	79.8 °C	-9.1 °C
Q167E	103 °C	14.1 °C
Q167V	68.2 °C	-20.7 °C
